Assay results taken from US20160347850A1 (AbbVie / Abbott, published 2016).
Changes are numbered by the printed parent chain.

B1: chimeric Ab3 (chAb3) (antibody, V domains shown)
VH: QVQLQQSGAELARPGASVKMSCKAFGYTFTSYTMHWVKQRPGQGLEWIGYINPSSDYPNYNQKFKDKATLTADKSSSTAYMQLSSLTSEDSAVYYCARWGYSFDYWGQGTTLTVSS
VL: DIVMTQAAPSVSVIPGESVSISCRSSKSLLHSNGNTYLYWFLQRPGQSPQYLIYRMSTLASGVPDRFSGSGSGTAFTLRISRVEAEDVGVYYCMQHLEYPLTFGAGTKLELK
notes: also called chimeric Antibody 3
B2: chimeric Ab1 (chAb1) (antibody, V domains shown)
VH: EVQLVESGGGLVKPGGSLKVSCAASGFTFSDYGMNWVRQAPEKGLEWIAYISSGRSNIYYADTVKGRFTISRDNAKNTLFLQMTSLRSEDTAMYYCARSWGYFDVWGTGTTVTVSS
VL: DIVMTQSPSSLTVTAGEMVTMSCKSSQSLLNSGNQKNYLTWFQQKPGQPPKLLIYWASTRESGVPDRFAGSGSGTDFTLTISSVQAEDLAVYYCQNDYTYPLTFGAGTKLEIK
notes: Murine Ab1 variable regions on human constant regions; also called chimeric antibody (Antibody 1 (Ab1))
B3: chimeric Ab2 (chAb2) (antibody, V domains shown)
VH: B2 VH with A40S, S56G
VL: B2 VL with M18K, A69T, I112L
B4: huAb1v1CDR2v13 (antibody, V domains shown)
VH: B2 VH with K19R, V20L, E42G, S56H, T78S, F80Y, T84N, S88A, M93V, T108Q
VL: DIVMTQSPDSLAVSLGERATINCKSSQSLLNRGNQKNYLTWFQQKPGQPPKLLIYWASTRESGVPDRFSGSGSGTDFTLTISSLQAEDVAVYYCQNDYTYPLTFGQGTKLEIK
B5: huAb1v1CDR2v9 (antibody, V domains shown)
VH: B2 VH with K19R, V20L, E42G, S56Q, T78S, F80Y, T84N, S88A, M93V, T108Q
VL: B4 VL
B6: huAb1v1CDR2v10 (antibody, V domains shown)
VH: B2 VH with K19R, V20L, E42G, S56W, T78S, F80Y, T84N, S88A, M93V, T108Q
VL: B4 VL
B7: huAb1v1CDR2v15 (antibody, V domains shown)
VH: B2 VH with K19R, V20L, E42G, S56Y, T78S, F80Y, T84N, S88A, M93V, T108Q
VL: B4 VL
B8: huAb1v1CDR2v4 (antibody, V domains shown)
VH: B2 VH with K19R, V20L, E42G, S56R, T78S, F80Y, T84N, S88A, M93V, T108Q
VL: B4 VL
B9: huAb1v1CDR2v1 (antibody, V domains shown)
VH: B2 VH with K19R, V20L, E42G, S56T, T78S, F80Y, T84N, S88A, M93V, T108Q
VL: B4 VL
B10: huAb1v1CDR2v11 (antibody, V domains shown)
VH: B2 VH with K19R, V20L, E42G, S56M, T78S, F80Y, T84N, S88A, M93V, T108Q
VL: B4 VL
B11: huAb1v1CDR2v17 (antibody, V domains shown)
VH: B2 VH with K19R, V20L, E42G, S56P, T78S, F80Y, T84N, S88A, M93V, T108Q
VL: B4 VL
B12: huAb1v1CDR2v5 (antibody, V domains shown)
VH: B2 VH with K19R, V20L, E42G, S56V, T78S, F80Y, T84N, S88A, M93V, T108Q
VL: B4 VL
B13: huAb1v1CDR2v6 (antibody, V domains shown)
VH: B2 VH with K19R, V20L, E42G, S56L, T78S, F80Y, T84N, S88A, M93V, T108Q
VL: B4 VL
B14: huAb1v1CDR2v16 (antibody, V domains shown)
VH: B2 VH with K19R, V20L, E42G, S56A, T78S, F80Y, T84N, S88A, M93V, T108Q
VL: B4 VL
B15: huAb1v1CDR2v3 (antibody, V domains shown)
VH: B2 VH with K19R, V20L, E42G, S56E, T78S, F80Y, T84N, S88A, M93V, T108Q
VL: B4 VL
B16: huAb1v1CDR2v14 (antibody, V domains shown)
VH: B2 VH with K19R, V20L, E42G, S56F, T78S, F80Y, T84N, S88A, M93V, T108Q
VL: B4 VL
B17: huAb1v1CDR2v8 (antibody, V domains shown)
VH: B2 VH with K19R, V20L, E42G, S56I, T78S, F80Y, T84N, S88A, M93V, T108Q
VL: B4 VL
B18: huAb1v1CDR2v7 (antibody, V domains shown)
VH: B2 VH with K19R, V20L, E42G, S56G, T78S, F80Y, T84N, S88A, M93V, T108Q
VL: B4 VL
B19: huAb1v1CDR2v12 (antibody, V domains shown)
VH: B2 VH with K19R, V20L, E42G, S56K, T78S, F80Y, T84N, S88A, M93V, T108Q
VL: B4 VL
B20: huAb1v1CDR2v2 (antibody, V domains shown)
VH: B2 VH with K19R, V20L, E42G, S56D, T78S, F80Y, T84N, S88A, M93V, T108Q
VL: B4 VL
B21: huAb1v6 (antibody, V domains shown)
VH: B2 VH with K19R, V20L, E42G, T78S, F80Y, T84N, S88A, M93V, T108Q
VL: B4 VL with R32L
B22: huAb1v5 (antibody, V domains shown)
VH: B2 VH with K19R, V20L, E42G, T78S, F80Y, T84N, S88A, M93V, T108Q
VL: B4 VL with R32T
B23: huAb1v2 (antibody, V domains shown)
VH: EVQLVESGGGLVKPGGSLRLSCAASGFTFSDYGMNWVRQAPGKGLEWVSYISSGRSNIYYADTVKGRFTISRDNAKNSLYLQMNSLRAEDTAVYYCARSWGYFDVWGQGTTVTVSS
VL: B4 VL with R32T
B24: huAb1v4 (antibody, V domains shown)
VH: B23 VH with V48I, S49A
VL: B4 VL with R32P
B25: huAb1v3 (antibody, V domains shown)
VH: B23 VH
VL: B4 VL with R32L
B26: huAb1v1 (antibody, V domains shown)
VH: B23 VH with V48I, S49A
VL: B4 VL

Target: T1, Human CD40 (human, UniProt P25942 21-277)
T1 construct: On HEK cells (FACS, reporter line), on primary human B cells and on human monocytes; also called huCD40; hCD40
T1 sequence (P25942 21-277 limits assumed): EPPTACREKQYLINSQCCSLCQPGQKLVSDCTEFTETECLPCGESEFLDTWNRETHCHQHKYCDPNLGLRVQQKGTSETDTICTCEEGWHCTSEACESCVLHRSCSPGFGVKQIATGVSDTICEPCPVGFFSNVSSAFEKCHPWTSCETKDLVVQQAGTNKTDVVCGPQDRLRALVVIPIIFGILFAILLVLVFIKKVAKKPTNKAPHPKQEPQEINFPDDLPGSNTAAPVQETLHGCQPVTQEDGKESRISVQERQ
Test: FACS blocking of sCD40L binding to CD40 expressing HEK cells
Experimental: FACS analysis was also used to determine whether the three chimeric antibodies could inhibit binding of soluble CD40 ligand (sCD40L) to CD40. Using CD40 expressing HEK cells, IC50 values were measured. As described in Table 10, each of the chimeric antibodies was able to block CD40 binding to its ligand.

First: B1
Second: B2
The IC50 of the first is 1.6-fold lower: 1.4 nM for the first, 2.3 nM for the second. The first is the more potent here.

Molecule B3 has an IC50 of 1.4 nM.

Target: T2, cyno CD40 (cynomolgus monkey, UniProt G7PG38 21-278)
T2 construct: whole, on cells; also called cyCD40; cynomolgus monkey CD40
Test: FACS on HEK cells expressing cyno CD40

B1: no binding.

Target: T2, cyno CD40
Test: FACS binding on HEK cells expressing cyCD40

B3: binds.

Target: T1, Human CD40
Test: cell-based or functional assay

Going from B4 to B5, the “Antagonist: Jurkat/Reporter assay (IC50 nM)” value falls from 62.4 nM to 7.06 nM (8.8-fold).

Going from B6 to B7, the “Antagonist: Jurkat/Reporter assay (IC50 nM)” value rises from 23 nM to 340 nM (15-fold).

Compared with B8, B9 is higher in “Antagonist: Jurkat/Reporter assay (IC50 nM)” value: 563 nM for the first, over 1000 nM for the second.

Going from B10 to B11, the “Antagonist: Jurkat/Reporter assay (IC50 nM)” value falls from over 1000 nM to 504 nM.

B12 and B13 cannot be ordered by “Antagonist: Jurkat/Reporter assay (IC50 nM)” value: over 1000 nM for the first, over 1000 nM for the second.

Compared with B14, B15 is 7.3-fold higher in “Antagonist: Jurkat/Reporter assay (IC50 nM)” value: 30.1 nM for the first, 219 nM for the second.

Compared with B16, B17 is higher in “Antagonist: Jurkat/Reporter assay (IC50 nM)” value: 21.9 nM for the first, over 1000 nM for the second.

Compared with B18, B19 is 88-fold higher in “Antagonist: Jurkat/Reporter assay (IC50 nM)” value: 2.69 nM for the first, 236 nM for the second.

With B20 the “Antagonist: Jurkat/Reporter assay (IC50 nM)” value was over 1000 nM.

Target: T1, Human CD40
Test: cell-based or functional assay
Remark: another data set of the same source

Molecule MEGACD40L (Enzo) (ligand) has a production of TNF from monocytes, EC50 (agonist assay format) of 1.9 nM.

Target: T1, Human CD40
Test: cell-based or functional assay
Remark: another data set of the same source

Compared with B21, B22 is higher in “Antagonist: Jurkat/Reporter assay IC50” value: 85 nM for the first, over 100 nM for the second.

Going from B23 to B26, the “Antagonist: Jurkat/Reporter assay IC50” value falls from over 100 nM to 55 nM.

Compared with B24, B25 is 1.6-fold higher in “Agonist: huCD40 reporter assay IC50” value: 49 nM for the first, 79 nM for the second.

Target: T1, Human CD40
Test: cell-based or functional assay
Remark: another data set of the same source

First: B1
Second: B2
The “Antagonist: His-CD40L reporter assay IC50” value of the first is 2-fold lower: 0.2 nM for the first, 0.4 nM for the second.

B3 was tested, and the “Antagonist: His-CD40L reporter assay IC50” value was 0.3 nM.

First: B1
Second: B2
The “Antagonist: Jurkat/Reporter assay IC50” value of the first is 57-fold lower: 0.9 nM for the first, 51 nM for the second.

With B3 the “Antagonist: Jurkat/Reporter assay IC50” value was 3.4 nM.

Target: T1, Human CD40
Test: cell-based or functional assay
Remark: another data set of the same source

With B18 the “antagonistic activity in comparison to antibody huAb1v1” value was 20 fold.
